Test results published in patent publication WO2013078377A1.

Assays:
[1] = molecular target: cynomolgus monkey CD98 as used in SPR, Octet and ELISA (cynomolgus monkey) (UniProt I7GH21); assay: Biacore and Octet
[2] = molecular target: human CD98 as used in ELISA, BIACORE and Octet assays (human) (UniProt P08195); assay: Biacore and Octet
UniProt P08195, sequence (P08195 206-630 limits assumed, form in doubt): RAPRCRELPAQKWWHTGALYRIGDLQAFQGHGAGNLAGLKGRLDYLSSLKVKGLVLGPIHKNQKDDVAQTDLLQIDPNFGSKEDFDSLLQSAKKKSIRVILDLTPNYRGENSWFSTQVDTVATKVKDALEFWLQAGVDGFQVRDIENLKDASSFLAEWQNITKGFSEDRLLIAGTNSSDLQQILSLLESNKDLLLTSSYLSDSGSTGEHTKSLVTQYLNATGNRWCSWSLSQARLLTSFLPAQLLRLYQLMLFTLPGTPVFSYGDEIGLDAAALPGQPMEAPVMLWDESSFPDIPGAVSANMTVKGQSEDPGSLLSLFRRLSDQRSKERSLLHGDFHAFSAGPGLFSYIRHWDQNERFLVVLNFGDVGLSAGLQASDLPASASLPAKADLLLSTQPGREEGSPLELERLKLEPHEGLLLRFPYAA

Kd [1]: 8 to 14 nM
Kd [2]: 2 to 6 nM
Substance: humanized anti-CD98 monoclonal antibody IGN523
